Assays:
[1] = target: HA-tagged human CXCR2 expressed on L1.2 cells (human) (UniProt P25025); assay: radioligand binding; competition of increasing concentrations of unlabeled CXCL8 (pre-incubated with H292 or H575 culture supernatant, then Pefabloc SC) against [125I]-CXCL8 on L1.2 cells expressing HA-CXCR1 or HA-CXCR2; n = 6
[2] = target: HA-tagged human CXCR1 expressed on L1.2 cells (human) (UniProt P25024); assay: as above

Recombinant human CXCL8, 72 aa form (CXCL8^1–72), intact (incubated with control H575 supernatant) (ligand)
IC50 [1]: 8.7 nM
IC50 [2]: 8.1 nM
